The record followed here is IntAct's records for PubMed 20923837.

In assay [1] the target is tbcd5_human TBC1D5 (UniProt Q92609).
Assay [2] concerns the target vps35_mouse Vps35 (UniProt Q9EQH3).

With “Vacuolar protein sorting-associated protein 29 (Mus musculus) (from UniProt Q9QZ88) L152E”, the “effect of a mutation on the interaction” value is given as “disrupting interaction strength” in assay [1] and “with no effect” in assay [2].
